Measured values published in patent US12612465B2, “Formulations comprising PCSK9 specific monoclonal antibodies” (Amgen Inc., priority 2012, dated 2026).

How the values were obtained:
Test in all cases: 11F1 binding specificity competition assay
PCSK7 = target: T1, PCSK7 (Homo sapiens, UniProt Q16549); settings: 0.4 μg/mL 11F1, 0 to 20 μg/mL competitor
T1 construct: purchased R&D Systems
T1 sequence (Q16549 142-785): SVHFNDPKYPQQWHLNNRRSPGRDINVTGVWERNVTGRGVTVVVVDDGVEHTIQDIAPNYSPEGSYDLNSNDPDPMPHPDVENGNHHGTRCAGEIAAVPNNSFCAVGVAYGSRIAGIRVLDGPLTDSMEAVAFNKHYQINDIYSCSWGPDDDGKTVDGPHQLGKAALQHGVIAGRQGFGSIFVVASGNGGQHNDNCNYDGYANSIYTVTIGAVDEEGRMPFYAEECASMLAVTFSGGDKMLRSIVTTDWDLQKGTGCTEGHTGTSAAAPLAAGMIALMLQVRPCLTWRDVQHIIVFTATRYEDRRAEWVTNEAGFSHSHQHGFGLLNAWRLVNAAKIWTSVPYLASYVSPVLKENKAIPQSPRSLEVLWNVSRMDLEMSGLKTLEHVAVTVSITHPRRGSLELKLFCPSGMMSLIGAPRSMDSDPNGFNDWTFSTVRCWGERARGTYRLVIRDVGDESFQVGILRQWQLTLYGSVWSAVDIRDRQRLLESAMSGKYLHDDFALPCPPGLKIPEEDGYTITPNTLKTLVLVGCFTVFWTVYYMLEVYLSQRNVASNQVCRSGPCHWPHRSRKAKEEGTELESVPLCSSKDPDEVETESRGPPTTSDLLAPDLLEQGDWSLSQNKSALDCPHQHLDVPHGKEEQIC
Procedure: (§1) Biotinylated PCSK9, diluted in buffer A (25 mM Tris, 150 mM NaCl, 0.1% BSA, 0.05% tween, pH 7.5) was bound to neutravidin coated 96 well plates at a concentration of 0.2 μg/mL, for one hour incubation at room temperature. Separately, 0.4 μg/mL of 11F1 was incubated for one hour at room temperature with various concentrations (ranging from 0 to 20 μg/mL) of either PCSK1, PCSK2, PCSK7, PCSK9 or furin (R&D Systems, Minneapolis, Minn.) (diluted in buffer A w/o tween). Furin inhibitor, at 4.5 μg/mL, was included with all furin containing reactions. The PCSK9 coated streptavidin plate was washed with buffer A and the antibody/proprotein convertase mixture was added to the plate and incubated at room temperature for one hour. After washing, bound antibody was detected by incubation with goat-α-human Fc-HRP (160 ng/mL, diluted in buffer A) (Jackson Laboratories, Bar Harbor, Me.) followed by TMB substrate. The reaction was stopped with 1 N HCl and the absorbance was read at a wavelength of 450 nm on a Spectramax Plus 384 spectrophotometer (Molecular Devices Inc., Sunnyvale, Calif.).
(§2) This assay relied on the ability of proprotein convertase in solution to compete for the binding of 11F1 to plate-captured PCSK9. […] All results were expressed as the mean OD450 value±standard deviation versus concentration of the proprotein convertase. […] Therefore, at the protein concentrations studied, 11F1 binds only to PCSK9 and not to the other proprotein convertase family members tested.

furin = target: T2, furin (Homo sapiens, UniProt P09958); settings: 0.4 μg/mL 11F1, 0 to 20 μg/mL competitor, furin inhibitor 4.5 μg/mL
T2 construct: purchased R&D Systems
Procedure: as §1, §2

PCSK9 = PCSK9 (Homo sapiens, UniProt Q8NBP7); settings: 0.4 μg/mL 11F1, 0 to 20 μg/mL competitor
Procedure: as §1, §2

PCSK1 = target: T3, PCSK1 (Homo sapiens, UniProt P29120); settings: 0.4 μg/mL 11F1, 0 to 20 μg/mL competitor
T3 construct: purchased R&D Systems
T3 sequence (P29120 111-753): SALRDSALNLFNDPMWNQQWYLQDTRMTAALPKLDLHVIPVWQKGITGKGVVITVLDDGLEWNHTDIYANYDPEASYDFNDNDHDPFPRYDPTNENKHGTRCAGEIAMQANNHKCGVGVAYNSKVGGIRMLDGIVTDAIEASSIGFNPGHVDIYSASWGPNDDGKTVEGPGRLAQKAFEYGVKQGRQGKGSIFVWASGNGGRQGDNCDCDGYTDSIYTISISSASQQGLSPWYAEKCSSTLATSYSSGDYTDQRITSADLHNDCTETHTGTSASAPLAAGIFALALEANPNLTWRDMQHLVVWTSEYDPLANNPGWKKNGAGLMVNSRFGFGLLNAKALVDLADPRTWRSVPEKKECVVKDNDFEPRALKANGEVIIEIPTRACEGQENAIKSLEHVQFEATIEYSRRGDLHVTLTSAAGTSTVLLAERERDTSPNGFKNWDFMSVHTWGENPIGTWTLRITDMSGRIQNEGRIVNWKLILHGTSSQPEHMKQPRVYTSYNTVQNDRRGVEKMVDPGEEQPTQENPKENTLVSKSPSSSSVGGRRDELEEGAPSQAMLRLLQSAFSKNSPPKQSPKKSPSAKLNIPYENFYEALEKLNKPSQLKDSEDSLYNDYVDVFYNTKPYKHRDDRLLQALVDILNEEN
Procedure: as §1, §2

PCSK2 = target: T4, PCSK2 (Homo sapiens, UniProt P16519); settings: 0.4 μg/mL 11F1, 0 to 20 μg/mL competitor
T4 construct: purchased R&D Systems
T4 sequence (P16519 110-638): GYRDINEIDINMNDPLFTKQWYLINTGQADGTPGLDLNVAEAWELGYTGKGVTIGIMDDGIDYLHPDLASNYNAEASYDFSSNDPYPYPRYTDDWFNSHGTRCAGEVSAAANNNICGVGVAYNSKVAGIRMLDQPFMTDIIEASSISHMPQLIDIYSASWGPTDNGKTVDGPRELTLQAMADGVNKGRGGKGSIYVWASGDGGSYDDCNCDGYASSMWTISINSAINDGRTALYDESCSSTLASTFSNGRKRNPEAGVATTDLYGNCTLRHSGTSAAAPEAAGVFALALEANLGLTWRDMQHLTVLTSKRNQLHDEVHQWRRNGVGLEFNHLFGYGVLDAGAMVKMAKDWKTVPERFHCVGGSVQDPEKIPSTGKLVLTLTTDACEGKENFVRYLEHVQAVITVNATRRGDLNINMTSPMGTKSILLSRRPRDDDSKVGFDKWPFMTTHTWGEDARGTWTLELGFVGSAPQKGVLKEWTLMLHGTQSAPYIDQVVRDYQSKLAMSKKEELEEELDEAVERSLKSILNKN
Procedure: as §1, §2

T2 sequence (P09958 108-794, species assumed): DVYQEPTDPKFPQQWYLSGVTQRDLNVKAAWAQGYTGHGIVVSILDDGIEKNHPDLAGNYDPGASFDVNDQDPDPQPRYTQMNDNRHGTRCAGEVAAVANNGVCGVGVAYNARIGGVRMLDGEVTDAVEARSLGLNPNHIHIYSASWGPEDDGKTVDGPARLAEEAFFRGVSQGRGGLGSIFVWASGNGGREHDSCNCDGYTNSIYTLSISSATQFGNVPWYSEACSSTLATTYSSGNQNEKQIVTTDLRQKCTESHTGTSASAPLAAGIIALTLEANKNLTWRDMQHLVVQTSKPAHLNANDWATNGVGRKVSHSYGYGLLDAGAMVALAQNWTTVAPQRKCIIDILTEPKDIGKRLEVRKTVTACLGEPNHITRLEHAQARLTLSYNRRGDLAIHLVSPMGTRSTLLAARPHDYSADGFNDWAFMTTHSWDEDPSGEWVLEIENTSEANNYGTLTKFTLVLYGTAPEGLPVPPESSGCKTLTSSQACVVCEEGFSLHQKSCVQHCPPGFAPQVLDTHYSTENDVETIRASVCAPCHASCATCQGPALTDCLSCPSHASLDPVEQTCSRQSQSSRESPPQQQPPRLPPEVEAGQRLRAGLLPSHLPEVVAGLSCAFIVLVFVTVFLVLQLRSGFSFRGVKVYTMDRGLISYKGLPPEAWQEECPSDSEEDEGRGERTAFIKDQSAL
Chain of PCSK9 (Q8NBP7 153-692): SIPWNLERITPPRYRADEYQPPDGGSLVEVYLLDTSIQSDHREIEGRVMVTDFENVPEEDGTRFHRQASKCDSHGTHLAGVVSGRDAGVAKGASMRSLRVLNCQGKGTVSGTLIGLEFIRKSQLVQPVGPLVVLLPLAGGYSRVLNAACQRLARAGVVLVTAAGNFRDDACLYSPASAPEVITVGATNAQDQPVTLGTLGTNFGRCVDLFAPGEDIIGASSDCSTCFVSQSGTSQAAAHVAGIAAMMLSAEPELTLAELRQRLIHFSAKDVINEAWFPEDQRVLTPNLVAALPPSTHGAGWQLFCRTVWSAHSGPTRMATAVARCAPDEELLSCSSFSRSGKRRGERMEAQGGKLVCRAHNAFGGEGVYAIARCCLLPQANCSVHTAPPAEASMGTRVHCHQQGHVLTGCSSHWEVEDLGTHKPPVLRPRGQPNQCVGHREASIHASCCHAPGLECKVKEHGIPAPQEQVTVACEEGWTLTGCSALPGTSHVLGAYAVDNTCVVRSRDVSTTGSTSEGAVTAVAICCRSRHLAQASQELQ

11F1: anti-PCSK9 ABP, light/heavy variable region SEQ ID NO 465/463 [Antibody 11F1]
effect of pre-incubation with PCSK7 in solution on 11F1 binding to plate-captured PCSK9 (PCSK7): did not significantly impact the binding | effect of pre-incubation with furin in solution on 11F1 binding to plate-captured PCSK9 (furin): did not significantly impact the binding | effect of pre-incubation with PCSK9 in solution on 11F1 binding to plate-captured PCSK9 (PCSK9): dose dependently and robustly reduced | effect of pre-incubation with PCSK1 in solution on 11F1 binding to plate-captured PCSK9 (PCSK1): did not significantly impact the binding | effect of pre-incubation with PCSK2 in solution on 11F1 binding to plate-captured PCSK9 (PCSK2): did not significantly impact the binding
